Reference: the supplement of paper PMC9170038

Tested on: MS2 coat protein
Assay: apparent KD of MS2 coat protein; designed switch direction (-1 OFF switch, 1 ON switch): 1; higher = weaker reporter binding
In short: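 The reported apparent KD is a per-design median over clusters, from curve fits of normalised cluster fluorescence. Protein titrations used SNAP-549-labelled MS2 coat protein, doubled from 0.7 or 1.5 nM to 3 µM, in Tris-HCl pH 7.5 buffer with KCl, MgCl2, BSA, DTT, tRNA and Tween-20, with no input, 200 uM small-molecule ligand, or an oligonucleotide input. The RNA switches were transcribed on Illumina chips by stalled E. coli RNA polymerase.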

[1] = input ligand: microRNA oligo, concentration not stated
[2] = Eterna round: R95, input ligand: FMN 200 uM
[3] = Eterna round: R95, input ligand: microRNA oligo, concentration not stated
[4] = Eterna round: R95, input ligand: none

Sequence | apparent KD of MS2 coat protein (input ligand: FMN 200 uM) [nM] | apparent KD of MS2 coat protein [1] [nM] | apparent KD of MS2 coat protein (input ligand: none) [nM] | apparent KD of MS2 coat protein [2] [nM] | apparent KD of MS2 coat protein [3] [nM] | apparent KD of MS2 coat protein [4] [nM]
UCAGAGGCGCUAGGAUAUCUCUCCGAGAAGCAGAGAGAAGGAGUGCGGAACCCAAGACCUACAUGAGGAUCACCCAUGUCUCAA [Eternabot solution 27] (Eterna round: R96, puzzle: Same State NG 1) | 22.8 | 22.9 | 38.7 |  |  | 
UCCUUGUGGGUAGGAUAUUUAGGAUAUGCGGAAGACUAAGUCUGUAGGUCACCUAACGCAGAAGGAGAGAAGGACCCUUCAGCA [pwkr ssNG2 2FMN + F9.32] (Eterna round: R96, puzzle: Same State NG 2) | 284 | 87.9 | 309 |  |  | 
UCGGGCGUACUUGCUGACAUGAGGAUCACCCAUGUGCUUGGGAAGGAUAUGGUUCCGUUUCGGUUCCAGAAGGUCCUGGCUGCU [salish99_SSNG3_r04_316] (Eterna round: R96, puzzle: Same State NG 3) | 116 | 47 | 79.8 |  |  | 
UCGGGCUCUGCUCGUCUUGAGUUGCUCCCACAUGAGGAUCACCCAUGUAGUGUGCCGAUCGGCGCGCGGGUGACUUU [Atresoso] (puzzle: Sensor for hsa-mir-208a) |  |  |  | 456 | 151 | 451
UCUCGGGUCGUAGGAUAUGUAGGAUAUGUACAUGAGGAUCACCCAUGUCUACCAGAGACAGAAGGACAGAAGGACGAGCCACUC [pwkr ssNG2 2FMN 1F5s.5] (Eterna round: R96, puzzle: Same State NG 2) | 25.2 | 42.2 | 55.5 |  |  | 
UCUCGGGUCGUAGGAUAUGUAGGAUAUGUACAUGAGGAUCACCCAUGUCUACCAGAGACAGAAGGACAGAAGGACGAGCCGAUC [pwkr ssNG2 2FMN 1F5s.6] (Eterna round: R96, puzzle: Same State NG 2) | 20.9 | 25.8 | 43.7 |  |  | 
UCUCUUAUCGUAGGAUAUGUAGGAUAUGUACAUGAGGAUCACCCAUGUCUACCAGAGACAGAAGGACAGAAGGACGAACCACUC [pwkr ssNG2 2FMN 1F5s.4] (Eterna round: R96, puzzle: Same State NG 2) | 43.4 | 51.7 | 80.7 |  |  | 
UCUUGGUUUUUGCUCGUUUUUUGUGUUGAACAUGAGGAUCACCCAUGUAUUAUACGAUCCGGUUUAAUAAUAAUCCG [JMF 80] (puzzle: Sensor for hsa-mir-208a) |  |  |  | 23.7 | 16.1 | 27.2
UCUUGGUUUUUGCUCGUUUUUUGUGUUGAACAUGAGGAUCACCCAUGUAUUGUACAAUCCGGUUUGAUGAUGGUCCG [JMF 52] (puzzle: Sensor for hsa-mir-208a) |  |  |  | 57.2 | 44.5 | 54.1
UCUUGGUUUUUGCUCGUUUUUUGUGUUGAACAUGAGGAUCACCCAUGUAUUGUACAGUCCAAUUUAAUAAUGGUCCG [JMF 53] (puzzle: Sensor for hsa-mir-208a) |  |  |  | 34.2 | 25.4 | 46.7
UCUUGGUUUUUGCUCGUUUUUUGUGUUGAACAUGAGGAUCACCCAUGUAUUGUACAGUCCGGUUUGAUGAUGGUCCG [JMF 59] (puzzle: Sensor for hsa-mir-208a) |  |  |  | 32.1 | 25.6 | 33.4
UCUUGGUUUUUGCUCGUUUUUUGUGUUGAACAUGAGGAUCACCCAUGUAUUGUACGGUCCAAUUUAAUGAUGGUCCA [JMF 36] (puzzle: Sensor for hsa-mir-208a) |  |  |  | 30.8 | 17.8 | 32.4
UCUUGGUUUUUGCUCGUUUUUUGUGUUGAACAUGAGGAUCACCCAUGUAUUGUACGGUCCAGUUUAAUAAUGGUCCG [JMF 30] (puzzle: Sensor for hsa-mir-208a) |  |  |  | 23.4 | 14 | 25
UCUUGGUUUUUGCUCGUUUUUUGUGUUGAACAUGAGGAUCACCCAUGUAUUGUACGGUCCAGUUUAGUGGUAGUCCG [JMF 70] (puzzle: Sensor for hsa-mir-208a) |  |  |  | 34.6 | 21.5 | 36.4
UCUUGGUUUUUGCUCGUUUUUUGUGUUGAACAUGAGGAUCACCCAUGUAUUGUACGGUCCGAUUUGAUAAUGGUCCA [JMF 41] (puzzle: Sensor for hsa-mir-208a) |  |  |  | 36.3 | 19.2 | 37.4
UCUUGGUUUUUGCUCGUUUUUUGUGUUGAACAUGAGGAUCACCCAUGUAUUGUACGGUCCGAUUUGAUAAUGGUCCG [JMF 21] (puzzle: Sensor for hsa-mir-208a) |  |  |  | 25.8 | 14.8 | 27
UCUUGGUUUUUGCUCGUUUUUUGUGUUGAACAUGAGGAUCACCCAUGUAUUGUACGGUCCGGUUUAGUAGUGGUCCA [JMF 44] (Eterna round: R96, puzzle: Sensor for hsa-mir-208a) | 181 | 81.8 | 173 |  |  | 
UCUUGGUUUUUGCUCGUUUUUUGUGUUGAACAUGAGGAUCACCCAUGUAUUGUACGGUCCGGUUUAGUAGUGGUCCA [JMF 44] (puzzle: Sensor for hsa-mir-208a) |  |  |  | 118 | 92.8 | 144
UGAACCUUCACAGGAUAUCAUGCGAAAAUUGCGUGAGAAGGGUGGAUGUGGCGUUCAAAGAUGCACAUGAGGAUCACCCAUGUA [SameState NG1 #49] (Eterna round: R96, puzzle: Same State NG 1) | 162 | 113 | 191 |  |  | 
UGAAUAAUGAUAGGAUAUACAUGAGGAAUCCUCGUAGAAGGAUCAUGACAUGAGGAUCACCCAUGUAGCGCUCAGAAGAGCGCA [Mat - Same State NG 1 - JL mod - D51] (Eterna round: R96, puzzle: Same State NG 1) | 160 | 76.7 | 191 |  |  | 
UGAAUAGUGAUAGGAUAUACAUGAGGAAUCCUCGUAGAAGGAUCACGACAUGAGGAUCACCCAUGUAGCCGUCGAAAGACGGCA [Mat - Same State NG 1 - JL mod - D61] (Eterna round: R96, puzzle: Same State NG 1) | 924 | 86.1 | 192 |  |  | 
UGAAUAGUGAUAGGAUAUACAUGAGGAAUCCUCGUAGAAGGAUCAUAACAUGAGGAUCACCCAUGUAGCCGUCAGAAGACGGCA [Mat - Same State NG 1 - JL mod - D57] (Eterna round: R96, puzzle: Same State NG 1) | 94.6 | 284 | 178 |  |  | 
UGAAUAGUUACAGGAUAUCAUGCGAAAAUUGCGUGAGAAGGGUGGGUGUUGUGCUCAAAGUGCUACAUGAGGAUCACCCAUGUU [SameState NG1 #40] (Eterna round: R96, puzzle: Same State NG 1) | 1720 | 99.3 | 497 |  |  | 
UGAAUAGUUACAGGAUAUGAGCCGAAAAUUGGGUCAGAAGGGUGGGUGUUGUGCGCUAUGUGCUACAUGAGGAUCACCCAUGUU [SameState NG1 #35] (Eterna round: R96, puzzle: Same State NG 1) | 1210 | 23.3 | 208 |  |  | 
UGAAUAGUUACAGGAUAUGAGCCGUAAAUUGGGUCAGAAGGGUGGGUGUUUUGCGCUGUGUGUUACAUGAGGAUCACCCAUGUU [SameState NG1 #32] (Eterna round: R96, puzzle: Same State NG 1) | 206 | 86.7 | 137 |  |  | 
UGACACACGGCAGGAUAUCGAUAGCAAAGCUAUCGAGAAGGGCCUCAUGUCGUGGAAACGUGACAUGAGGAUCACCCAUGUUGC [Omei SS(NG)1 Cv11] (Eterna round: R96, puzzle: Same State NG 1) | 280 | 8.42 | 51.4 |  |  | 
UGACACACGGCAGGAUAUCGAUUGCAAAGCAAUCGAGAAGGGCCUCAUGUCGUGGAAACGUGACAUGAGGAUCACCCAUGUCGC [Omei SS(NG)1 Cv13] (Eterna round: R96, puzzle: Same State NG 1) | 53.1 | 11.6 | 24 |  |  | 
UGACACACGGCAGGAUAUCGUUAGCAAAGCUAACGAGAAGGGCCUCAUGUCGUGGAAACGUGACAUGAGGAUCACCCAUGUCGC [Omei SS(NG)1 Cv9] (Eterna round: R96, puzzle: Same State NG 1) | 272 | 27.3 | 58.5 |  |  | 
UGACACACGGCAGGAUAUGCUUAGCAAAGCUAAGCAGAAGGGCCUCAUGUCGUGGAAACGUGACAUGAGGAUCACCCAUGUCGC [Omei SS(NG)1 Cv4] (Eterna round: R96, puzzle: Same State NG 1) | 122 | 6.01 | 17.7 |  |  | 
UGACACACGGCAGGAUAUGCUUAGCAAAGCUAAGCAGAAGGGCCUCAUGUCGUGGAAACGUGACAUGAGGAUCACCCAUGUUGC [Omei SS(NG)1 Cv2] (Eterna round: R96, puzzle: Same State NG 1) | 306 | 46.8 | 57.9 |  |  | 
